Experimental findings from US20190284293A1 (Bristol-Myers Squibb, published 2019) are described below.

Where “and” joins values, the source holds several entries; their conditions need not be identical. Equal entries are not always repeated.

Assay [1] deals with T1, cynomolgus CD73 on transfected CHO cells (cynomolgus, UniProt P21589 27-549 (human entry)).
T1 construct: also called CHO-cynoCD73; CHO-Cynomolgus CD73 transfectants
T1 chain: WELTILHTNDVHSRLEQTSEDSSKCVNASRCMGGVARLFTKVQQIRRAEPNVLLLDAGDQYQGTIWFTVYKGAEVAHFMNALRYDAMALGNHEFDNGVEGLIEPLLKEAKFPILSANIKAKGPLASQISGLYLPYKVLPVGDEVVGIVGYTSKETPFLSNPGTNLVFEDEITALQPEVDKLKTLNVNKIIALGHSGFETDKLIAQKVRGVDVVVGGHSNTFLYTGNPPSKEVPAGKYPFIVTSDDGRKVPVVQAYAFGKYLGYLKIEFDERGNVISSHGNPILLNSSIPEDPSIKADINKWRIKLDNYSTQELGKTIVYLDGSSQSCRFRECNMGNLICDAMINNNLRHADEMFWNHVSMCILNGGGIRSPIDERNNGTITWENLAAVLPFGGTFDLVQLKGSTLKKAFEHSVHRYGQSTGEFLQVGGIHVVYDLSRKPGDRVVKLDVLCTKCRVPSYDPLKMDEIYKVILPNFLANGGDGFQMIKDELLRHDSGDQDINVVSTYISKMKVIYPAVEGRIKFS
The experiment in a line: flow cytometry, CHO-cynoCD73 cells. As for the experimental part: (§1) Titration binding curves were produced with CD73 antibodies on Calu6 (CD73 endogenous expressors; human pulmonary adenocarcinoma cell line), DMS114 (CD73 negative; human small cell lung cancer cell line), CHO-cynoCD73 (cynoCD73-transfected) and CHO-K1 (cynoCD73 negative), cells using Alexa Fluor® 647 Goat Anti-Human IgG (H+L) as a secondary antibody, Invitrogen Cat#A-21445, using the following method: 100000 cells were plated in 100 uL PBS+2% FBS per well and blocked for 20 min. Using a U-bottom 96-deep well plate, volumes of antibody and PBS+2% FBS were combined as dictated by Table 12 below.
(§2) An 8-point serial dilution was performed by diluting a sixth of the volume (90 uL) into […], PBS+2% FBS. The cell plate was spun down for 5 minutes at 1500 rpm. 100 uL of diluted antibody was added per well of the plate. 100 uL PBS+2% FBS were added to all other wells. […] The plates were spun down at 1500 rpm for 5 min and washed in 200 uL PBS+2% FBS per well. The plates were washed again, resuspended in 200 uL 2% FBS in PBS per well and the samples were run.
For orientation: Flow cytometry measures light scatter and fluorescence of single cells or particles in a stream.

The target in assay [2] is T2, N-hCD73-his (N-terminal domain of human CD73, residues 26-336, His tag) (human, UniProt P21589 26-336).
T2 sequence: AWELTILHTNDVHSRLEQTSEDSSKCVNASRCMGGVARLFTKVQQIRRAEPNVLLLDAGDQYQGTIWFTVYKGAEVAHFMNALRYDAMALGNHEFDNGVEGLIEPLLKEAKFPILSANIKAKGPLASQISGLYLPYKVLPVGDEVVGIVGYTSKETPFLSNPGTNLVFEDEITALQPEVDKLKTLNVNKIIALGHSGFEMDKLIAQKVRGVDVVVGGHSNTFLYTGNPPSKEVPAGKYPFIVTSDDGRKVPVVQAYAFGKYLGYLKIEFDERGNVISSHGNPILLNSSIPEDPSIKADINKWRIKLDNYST
The experiment in a line: SPR, mAb captured on protein A. As for the experimental part:
(§3) For these experiments, protein A (Pierce) was immobilized to a density of 3000-4000 RU on flow cells 1-4 of a CM5 sensor chip (GE Healthcare) using standard ethyl(dimethylaminopropyl) carbodiimide (EDC)/N-hydroxysuccinimide […] chemistry, with ethanolamine blocking, in a running buffer of 0.01 M HEPES pH 7.4, 0.15 M NaCl, 3 mM EDTA, 0.005% v/v tween 20. […] The running buffer for the kinetic experiments was 10 mM sodium phosphate, 130 mM sodium chloride, 0.05% tween 20, pH 7.1. The surfaces were regenerated after each cycle using two 30 s pulses of 10 mM glycine pH 1.5 at a flow rate of 30 μl/min. Sensogram data was double-referenced and then fitted to a 1:1 Langmuir model using Biacore T100 evaluation software v2.0.4, to determine the association rate constant (ka), the dissociation rate constant (kd), and the equilibrium dissociation constant (KD).
On the technique in general: Surface plasmon resonance follows binding to a sensor surface in real time, without labels.

The target of assay [3] is T3, human CD73 on cells (human, UniProt P21589 27-549).
T3 sequence: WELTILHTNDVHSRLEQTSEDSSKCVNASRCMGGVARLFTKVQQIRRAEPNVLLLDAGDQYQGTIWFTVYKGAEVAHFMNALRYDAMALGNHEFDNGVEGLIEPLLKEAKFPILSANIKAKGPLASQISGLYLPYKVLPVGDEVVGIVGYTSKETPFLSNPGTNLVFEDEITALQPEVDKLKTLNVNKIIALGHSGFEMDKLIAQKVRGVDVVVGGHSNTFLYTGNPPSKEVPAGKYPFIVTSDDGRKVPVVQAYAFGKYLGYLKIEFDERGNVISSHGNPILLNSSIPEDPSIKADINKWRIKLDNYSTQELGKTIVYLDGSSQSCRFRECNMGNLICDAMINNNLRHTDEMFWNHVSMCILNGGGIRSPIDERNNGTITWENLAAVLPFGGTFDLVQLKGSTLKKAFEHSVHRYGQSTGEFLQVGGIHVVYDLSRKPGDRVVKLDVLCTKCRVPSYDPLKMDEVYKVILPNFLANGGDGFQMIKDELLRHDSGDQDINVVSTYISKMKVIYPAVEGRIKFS
Put plainly: cell-based or functional assay.

The target of assay [4] is T2, N-hCD73-his (N-terminal domain of human …). The experiment in a line: SPR, comparison of all IgG2 molecules. As for the experimental part:
as §3

Assay [5] has as its target T3, human CD73 on cells. Put plainly: cell-based or functional assay. The source holds these as a separate data set.
The target of assay [6] is T4, rhCD73 bound to his-tag magnet beads (human, UniProt P21589 27-547, limits assumed).
T4 sequence: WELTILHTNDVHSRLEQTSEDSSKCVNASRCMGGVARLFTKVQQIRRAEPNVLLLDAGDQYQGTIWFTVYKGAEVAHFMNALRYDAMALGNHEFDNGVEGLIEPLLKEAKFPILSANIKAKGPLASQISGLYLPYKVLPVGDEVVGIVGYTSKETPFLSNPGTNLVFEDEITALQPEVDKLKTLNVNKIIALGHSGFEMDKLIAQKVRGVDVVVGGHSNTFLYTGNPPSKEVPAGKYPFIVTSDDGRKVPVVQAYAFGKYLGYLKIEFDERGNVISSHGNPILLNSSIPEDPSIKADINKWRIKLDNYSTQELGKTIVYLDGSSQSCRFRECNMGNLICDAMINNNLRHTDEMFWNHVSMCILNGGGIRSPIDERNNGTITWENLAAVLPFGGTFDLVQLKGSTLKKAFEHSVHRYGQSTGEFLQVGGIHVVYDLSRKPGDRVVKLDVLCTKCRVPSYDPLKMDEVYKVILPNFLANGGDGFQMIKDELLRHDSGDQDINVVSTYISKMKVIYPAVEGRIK
The experiment in a line: cell-based or functional assay.

Assay [7] deals with T3, human CD73 on cells. The experiment in a line: cell-based or functional assay. The source holds these as a separate data set.
The target of assay [8] is T3, human CD73 on cells. The experiment in a line: flow cytometry, FITC-mAb, human B cells, donor D329. As for the experimental part: (§4) Binding of CD73.4 antibody to human B and T cells was also determined. Peripheral blood mononuclear cells (PBMC) were isolated with Lympholyte-H cell separation gradient media. […] Cells from both donors were pooled for the unstained and FMO (Fluorescence minus one) control samples.

For assay [9], the target named is T3, human CD73 on cells. Put plainly: flow cytometry, FITC-mAb, human B cells, donor D316. As for the experimental part: as §4
The target in assay [10] is T3, human CD73 on cells. Put plainly: binding titration on Calu6 cells, average of 2-6 experiments.
In assay [11] the target is T3, human CD73 on cells. The experiment in a line: flow cytometry, FITC-mAb, human T cells, donor D329. On the procedure: as §4
Assay [12] deals with T3, human CD73 on cells. The experiment in a line: cell-based or functional assay. This is another data set of the same source.
In assay [13] the target is T3, human CD73 on cells. Put plainly: flow cytometry, Calu6 cells. As for the experimental part: as §1, §2
Assay [14] concerns the target T3, human CD73 on cells. Put plainly: flow cytometry, FITC-mAb, human T cells, donor D316. As for the experimental part:
as §4

For assay [15], the target named is T5, cyno CD73, Sino Biological Inc Cat#90192-C08H, bound to his-tag magnet beads (cynomolgus, UniProt P21589 27-547 (human entry)).
T5 chain: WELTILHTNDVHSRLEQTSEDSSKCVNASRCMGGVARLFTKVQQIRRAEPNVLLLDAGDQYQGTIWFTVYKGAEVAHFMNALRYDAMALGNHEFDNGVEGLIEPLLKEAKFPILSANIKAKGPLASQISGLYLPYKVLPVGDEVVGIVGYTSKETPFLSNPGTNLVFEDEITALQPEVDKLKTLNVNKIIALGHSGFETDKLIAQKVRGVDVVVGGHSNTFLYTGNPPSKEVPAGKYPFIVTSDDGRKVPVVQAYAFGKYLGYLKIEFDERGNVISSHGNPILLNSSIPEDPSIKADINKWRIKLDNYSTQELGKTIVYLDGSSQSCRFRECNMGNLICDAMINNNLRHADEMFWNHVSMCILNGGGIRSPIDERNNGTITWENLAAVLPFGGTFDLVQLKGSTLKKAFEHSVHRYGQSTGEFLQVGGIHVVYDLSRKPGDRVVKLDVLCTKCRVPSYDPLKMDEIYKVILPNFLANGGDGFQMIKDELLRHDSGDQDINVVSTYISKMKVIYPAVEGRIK
Put plainly: cell-based or functional assay.

B1: 11F11 (antibody, human IgG2, kappa, V domains shown)
VH: QVQLVESGGGVVQPGRSLRLSCATSGFTFSNYGMHWVRQAPGKGLEWVAVILYDGSNKYYPDSVKGRFTISRDNSKNTLYLQMNSLRAEDTAVYYCARGGSSWYPDSFDIWGQGTMVTVSS
VL: DIQMTQSPSSLSASVGDRVTITCRASQGISSWLAWYQQKPEKAPKSLIYAASSLQSGVPSRFSGSGSGTDFTLTISSLQPEDFATYYCQQYNSYPLTFGGGTKVEIKR
notes: Human IgG2; also called 11F11-2
On to B1, for which the EC50 (in general, the midpoint of the concentration-response curve) in assay [1] came out at 580 pM. In addition, the dissociation constant (Kd) (as a rule, the constant that tells how readily two partners part at equilibrium) was 560 pM and 1600 pM in assay [2]; 1100 pM in [4]. For the same molecule, in assay [3], the “Ymax, cAMP HTRF assay (percent of 100 nM 11F11 control)” value stood at 76%. The “EC50 SKMEL24 inhibition” value in [5] came to 3150 pM. Further, in assay [6], the “EC50 (nM), inhibition of bead-bound human CD73 enzymatic activity” value was 3.98 nM. In assay [7], the “EC50 (nM), high-content internalization assay, Calu6, 2 h” value stood at 0.58 nM. Further, the “Ymax, high-content internalization assay (percent of 100 nM 11F11)” value in assay [7] amounted to 98%.

B2: CD73.4-IgG2-C219S (antibody)
heavy: QVQLVESGGGVVQPGRSLRLSCAASGFTFSNYGMHWVRQAPGKGLEWVAVILYDGSNKYYPDSVKGRFTISRDNSKNTLYLQMNSLRAEDTAVYYCARGGSSWYPDSFDIWGQGTMVTVSSASTKGPSVFPLAPCSRSTSESTAALGCLVKDYFPEPVTVSWNSGALTSGVHTFPAVLQSSGLYSLSSVVTVPSSNFGTQTYTCNVDHKPSNTKVDKTVERKSCVECPPCPAPPVAGPSVFLFPPKPKDTLMISRTPEVTCVVVDVSHEDPEVQFNWYVDGVEVHNAKTKPREEQFNSTFRVVSVLTVVHQDWLNGKEYKCKVSNKGLPAPIEKTISKTKGQPREPQVYTLPPSREEMTKNQVSLTCLVKGFYPSDIAVEWESNGQPENNYKTTPPMLDSDGSFFLYSKLTVDKSRWQQGNVFSCSVMHEALHNHYTQKSLSLSPG
light: not shown
notes: also called CD73.4-IgG2CS; CD73.4-IgG2.3
As to B2, the IC50 – broadly, the point on the concentration scale where inhibition reaches its midpoint – is 77.7 pM in assay [8], 159 pM in [9], 135 pM in assay [11] and 180 pM in assay [14]. Further, the figures for the EC50 in assay [10], in assay [1] and in assay [13] were 490 pM, 340 pM and 490 pM, respectively. Moreover, in assay [5], the “EC50 Calu6 inhibition” value amounted to 340 pM. Moreover, the “CD73 Inhibition EC50 (nM), cAMP assay, Calu6” value in assay [12] was 1.56 nM and 1.78 nM. In addition, in [6], the “EC50 (nM), inhibition of bead-bound human CD73 enzymatic activity” value came out at 2.72 nM. Besides, the “EC50 (nM), enzymatic inhibition of cyno CD73 (bead-bound)” value in assay [15] stood at 3.66 nM.
